Data: the RNAGym collection of RNA variant scans (doi:10.7554/elife.80360)

B1: HDV Ribozyme (parent)
chain: GGCCGGCAUGGUCCCAGCCUCCUCGCUGGCGCCGGCUGGGCAACAUUCCGAGGGGACCGUCCCCUCGGUAAUGGCGAAUGGGACCCA

Variants of: B1
Test: self-cleavage, relative activity (ratio to wild type); higher = more cleavage; co-transcriptional

In order of rising self-cleavage:
1. GGCCGGCAUGGGCCCAGCCCCCUCGCUGGCGCCGGCUGGGCAACAUUCCGAGGGGACCGUCCCCUCGGUAAUGGCGAAUGGGACCCA  0
2. GGCCGGCAUGGGCCCAGCCGCCUCGCUGGCGCCGGCUGGGCAACAUUCCGAGGGGACCGUCCCCUCGGUAAUGGCGAAUGGGACCCA  0
3. GGCCGGCAUGGGCCCAGCCUCCUCGCUGGCGCCGGCUGGGCAACAUUCCGAGGGGACCGUCCCCUCGGUAAUGGUGAAUGGGACCCA  0
4. GGCCGGCAUGGGCCCAGCCUCCUCGCUUGCGCCGGCUGGGCAACAUUCCGAGGGGACCGUCCCCUCGGUAAUGGCGAAUGGGACCCA  0
5. GGCCGGCAUGGGCCCAGCCUCCUCGCUAGCGCCGGCUGGGCAACAUUCCGAGGGGACCGUCCCCUCGGUAAUGGCGAAUGGGACCCA  0
6. GGCCGGCAUGGGCCCAGCCUCCUCGCUGUCGCCGGCUGGGCAACAUUCCGAGGGGACCGUCCCCUCGGUAAUGGCGAAUGGGACCCA  0.0489
7. GGCCGGCAUGGGCCCAGCCUCCUCGCUGGCGCCGGCUAGGCAACAUUCCGAGGGGACCGUCCCCUCGGUAAUGGCGAAUGGGACCCA  0.0978
8. GGCCGGCAUGGGCCCAGCCUCCUCGCUGACGCCGGCUGGGCAACAUUCCGAGGGGACCGUCCCCUCGGUAAUGGCGAAUGGGACCCA  0.0978
9. GGCCGGCAUGGGCCCAGCCUCCUCGCUGGCGCCGUCUGGGCAACAUUCCGAGGGGACCGUCCCCUCGGUAAUGGCGAAUGGGACCCA  0.104
10. GGCCGGCAUGGGCCCAGCCUCCUCCCUGGCGCCGGCUGGGCAACAUUCCGAGGGGACCGUCCCCUCGGUAAUGGCGAAUGGGACCCA  0.119
11. GGCCGGCAUGGGCCCAGCCUCCUCGCUGGCGCCGGCUGGCCAACAUUCCGAGGGGACCGUCCCCUCGGUAAUGGCGAAUGGGACCCA  0.123
12. GGCCGGCAUGGGCCCAGCCUCCUCGCUGGCCCCGGCUGGGCAACAUUCCGAGGGGACCGUCCCCUCGGUAAUGGCGAAUGGGACCCA  0.138
13. GGCCGGCAUGGGCCCAGCCUCCUCGCUGGCGCCGGCUGGGCAACAUUCCGAGGGGACCGUCCCCUCGGUAAUGCCGAAUGGGACCCA  0.151
14. GGCCGGCAUGGGCCCAGCCUCCUCGCUGGCGCCGCCUGGGCAACAUUCCGAGGGGACCGUCCCCUCGGUAAUGGCGAAUGGGACCCA  0.151
15. GGCCGGCAUGGGCCCAGCCUCCUCGCUGGCGCCGGCUGGGCAACAUUCCGAGGGGACCGUCCCCUCGGUAAUUGCGAAUGGGACCCA  0.166
16. GGCCGGCAUGGGCCCAGCCUCCUCGCUGCCGCCGGCUGGGCAACAUUCCGAGGGGACCGUCCCCUCGGUAAUGGCGAAUGGGACCCA  0.175
17. GGCCGGCAUGGGCCCAGCCUCCUCGCUGGCGCCGGCUGGGCAACAUUCCGAGGGGACCGUCCCCUCGGUAAUGGCGAAUGAGACCCA  0.201
18. GGCCGGCAUGGGCCCAGCCUCCUCGCUGGCGCCGGCUGCGCAACAUUCCGAGGGGACCGUCCCCUCGGUAAUGGCGAAUGGGACCCA  0.208
19. GGCCGGCAUGGGCCCAGCCUCCUCGCUGGCGCCGGCUGGGCAACAUUCCGAGGGGACCGUCCCCUCGGUAAUGGCGAAUGUGACCCA  0.266
20. GGCCGGCAUGGGCCCAGCCUCCUCGCUGGCGCCUGCUGGGCAACAUUCCGAGGGGACCGUCCCCUCGGUAAUGGCGAAUGGGACCCA  0.266
21. GGCCGGCAUGGGCCCAACCUCCUCGCUGGCGCCGGCUGGGCAACAUUCCGAGGGGACCGUCCCCUCGGUAAUGGCGAAUGGGACCCA  0.277
22. GGCCGGCAUGGGCCCAGCCUCCUCGCUGGCUCCGGCUGGGCAACAUUCCGAGGGGACCGUCCCCUCGGUAAUGGCGAAUGGGACCCA  0.277
23. GGCCGGCAUGGGCCCAGCCUCCUCGCUGGCGCCGGCUGAGCAACAUUCCGAGGGGACCGUCCCCUCGGUAAUGGCGAAUGGGACCCA  0.403
24. GGCCGGCAUGGGCCCAGCCUCCUCGCUGGCGCCGGCUGGGCAAGAUUCCGAGGGGACCGUCCCCUCGGUAAUGGCGAAUGGGACCCA  0.475
25. GGCCGGCAUGGGCCCAGCCUCCUCGCUGGCGCCGGCUGGGCAACAUUCCGAGGGGACCGUCCCCUCGGUAAUCGCGAAUGGGACCCA  0.489
26. GGCCGGCAUGGGCCCAGCCUCCUCGCUGGCGCCGGCUGGGCAACAUUCCGAGGGGACCGUCCCCUCGGUAAUGGCGAAUGGAACCCA  0.499
27. GGCCGGCAUGGGCCCAGCCUCCUCGCUGGCGCCGGCUGGGCAACAUUCCGAGGGGACCGUCCCCUCGGUAAUGGCGAAUGGUACCCA  0.519
28. GGCCGGCAUGGGCCCAGCCUCCUCGCUGGCGCCGGCUGGGCAACAUUCCGAGGGGACCGUCCCCUCGGUAAUGGCGAAUUGGACCCA  0.534
29. GGCCGGCAUGGGCCCAGCCUCCUCGCUGGCGCCGGCUGGGCAACAUUCCGAGGGGACCGUCCCCUCGGUAAUGGCGAAUGGGACCGA  0.59
30. GGCCGGCAUGGGCCCAGCCUCCUCGCUGGCGCCGGCUGGGCAACAUUCCGAGGGGACCGUCCCAUCGGUAAUGGCGAAUGGGACCCA  0.594
31. GGCCGGCAUGGGCCCAGCCUCCUCGCUGGCGCCGGCUGGGCAAAAUUCCGAGGGGACCGUCCCCUCGGUAAUGGCGAAUGGGACCCA  0.604
32. GGCCGGCAUGGGCCCAGCCUCCUCGCUGGCGCCGGCUGGGCAACAUUCCGAUGGGACCGUCCCCUCGGUAAUGGCGAAUGGGACCCA  0.617
33. GGCCGGCAUGGGCCCAGCCUCCUCGCUGGCGCCGGCUGGGCAACAUUCCGAGGGGACCGUCCCCUCGGUAAUGGCGAAUGGCACCCA  0.633
34. GGCCGGCAUGGGCCCAGCCUCCUCGCUGGCGCCGGCUGGGCAACAUUCCGAGGGGACCGUCCCCUCGGUAAUGGCGAAUGCGACCCA  0.665
35. GGCCGGCAUGGGCCCAGCCUCCUCGCUGGCGCCGGCUGGGCAACAUUCCGAGGGGACCGUCCCCUCGGUAAUGGCGAAUGGGAACCA  0.665
36. GGCCGGCAUGGGCCCAGCCUCCUCGCUGGCGCCGGCUGGGCAACAUUCCGAGGGGACCGUCCCCUCGGUAAUGGCGAAUGGGAUCCA  0.692
37. GGCCGGCAUGGGCCCAGCCUCCUCGCUGGCGCCGGCUGGACAACAUUCCGAGGGGACCGUCCCCUCGGUAAUGGCGAAUGGGACCCA  0.72
38. GGCCGGCAUGGGCCCAGCCUCCUCGCUGGCGCCGGCUGGGCAACAUUCCCAGGGGACCGUCCCCUCGGUAAUGGCGAAUGGGACCCA  0.727
39. GGCCGGCAUGGGCCCAGCCUCCUCGCUGGCGCCGGCUGGGCAACAUUCCGAGGGGACCGUCCCCUCUGUAAUGGCGAAUGGGACCCA  0.731
40. GGCCGGCAUGGGCCCAGCCUCCUCGCUGGCGCCGGCUGGGCAACAUUCCGAGGGGACCGUCUCCUCGGUAAUGGCGAAUGGGACCCA  0.755
41. GGCCGGCAUGGGCCCAGCCUCCUCGCUGGCGCCGGCUGGGCAACAUUCUGAGGGGACCGUCCCCUCGGUAAUGGCGAAUGGGACCCA  0.776
42. GGCCGGCAUGGGCCCAGCCUCCUCGCUGGCGCCGGCUGGGCAACAUUCGGAGGGGACCGUCCCCUCGGUAAUGGCGAAUGGGACCCA  0.787
43. GGCCGGCAUGGGCCCAGCCUCCUCGCUGGCGCCGGCUGGGCAACAUUCCGAGGUGACCGUCCCCUCGGUAAUGGCGAAUGGGACCCA  0.793
44. GGCCGGCAUGGGCCCAGCCUCCUCGCUGGCGCCGGCUGGGCAACAUUCCGAGGGGACCGUACCCUCGGUAAUGGCGAAUGGGACCCA  0.798
45. GGCCGGCAUGGGCCCAGCCUCCUCGCUGGCGCCGGCUGGGCAACAUUCCGAGGGGACCGUGCCCUCGGUAAUGGCGAAUGGGACCCA  0.798
46. GGCCGGCAUGGGCCCAGCCUCCUCGCUGGCGCCGGCUGGGCAACAUUACGAGGGGACCGUCCCCUCGGUAAUGGCGAAUGGGACCCA  0.831
47. GGCCGGCAUGGGCCCAGCCUCCUCGCUGGCGCCGGCUGGGCAACAUUCCGAGGGGACCGUUCCCUCGGUAAUGGCGAAUGGGACCCA  0.831
48. GGCCGGCAUGGGCCCAGCCUCCUCGCUGGCGCCGGCUGGGCAACAUUCCGAGGAGACCGUCCCCUCGGUAAUGGCGAAUGGGACCCA  0.831
49. GGCCGGCAUGGGCCCAGCCUCCUCGCUGGCGCCGGCUGGGCAACAUUCCGAGGGGACCGUCCCCUUGGUAAUGGCGAAUGGGACCCA  0.853
50. GGCCGGCAUGGGCCCAGCCUCCUCGCUGGCGCCGGCUGGGCAACAUUCCGAGGGGACCGUCCCCUGGGUAAUGGCGAAUGGGACCCA  0.862
51. GGCCGGCAUGGGCCCAGCCUCCUCGCUGGCGCCGGCUGGGCAACAUUCCUAGGGGACCGUCCCCUCGGUAAUGGCGAAUGGGACCCA  0.87
52. GGCCGGCAUGGGCCCAGCCUCCUCGCUGGCGCCGGCUGGGCAACAUUCCGAGAGGACCGUCCCCUCGGUAAUGGCGAAUGGGACCCA  0.88
53. GGCCGGCAUGGGCCCAGCCUCCUCGCUGGCGCCGGCUGGGCAACAUUCCGAGGGGACCGUCCCCUCGGUAAUGGCGAAUGGGACCAA  0.906
54. GGCCGGCAUGGGCCCAGCCUCCUCGCUGGCGCCGGCUGGGCAACAUUCCGAGGGGACCGUCCCCUCGGUAAUGGCAAAUGGGACCCA  0.917
55. GGCCGGCAUGGGCCCAGCCUCCUCGCUGGCGCCGGCUGGGCAACAUUCCGAGGGGACCAUCCCCUCGGUAAUGGCGAAUGGGACCCA  0.929
56. GGCCGGCAUGGGCCCAGCCUCCUCGCUGGCGCCGGCUGGGCAACAUUCCGAGGGGAGCGUCCCCUCGGUAAUGGCGAAUGGGACCCA  0.931
57. GGCCGGCAUGGGCCCAGCCUCCUCGCUGGCGCCGGCUGGGCAACAUUCCGAGGGCACCGUCCCCUCGGUAAUGGCGAAUGGGACCCA  0.95
58. GGCCGGCAUGGGCCCAGCCUCCUCGCUGGCGCCGGCUGGGCAACAUUCCGAGGGGACCCUCCCCUCGGUAAUGGCGAAUGGGACCCA  0.95
59. GGCCGGCAUGGGCCCAGCCUCCUCGCUGGCGCCGGCUGGGCAACAUUCCGAGGGGAACGUCCCCUCGGUAAUGGCGAAUGGGACCCA  0.985
60. GGCCGGCAUGGGCCCAGCCUCCUCGCUGGCGCCGGCUGGGCAACAUUCCGAGUGGACCGUCCCCUCGGUAAUGGCGAAUGGGACCCA  1.01
61. GGCCGGCAUGGGCCCAGCCUCCUCGCUGGCGCCGGCUGGGCAACAUUCCGAGGGGACCGUCACCUCGGUAAUGGCGAAUGGGACCCA  1.06
62. GGCCGGCAUGGGCCCAGCCUCCUCGCUGGCGCCGGCUGGGCAACAUUCCGAGGGGACCGUCCCCUCGGUAAUGGCUAAUGGGACCCA  1.17
63. GGCCGGCAUGGGCCCAGCCUCCUCGCUGGCGCCGGCUGGGCAACAUUUCGAGGGGACCGUCCCCUCGGUAAUGGCGAAUGGGACCCA  1.2
64. GGCCGGCAUGGGCCCAGCCUCCUCGCUGGCGCCGGCUGGGCAACAUUCCGAGGGGACCGUCCCCUCGGUAAUGGCCAAUGGGACCCA  1.2
